The target of test [1] is H7N9病毒的血凝素HA (H7N9 influenza virus). The test can be described thus: ELISA of 293F transfection supernatant (well A, supernatant). In general terms: ELISA stands for enzyme-linked immunosorbent assay.
The target is the same in test [2]. Put plainly: ELISA of 293F transfection supernatant (well B, supernatant).
Test [3] has the same target. The test can be described thus: ELISA of 293F transfection supernatant (well C, supernatant).

Data on one molecule can be found in patent publication CN109957012A.

B1: 抗H7N9全人源单克隆抗体8E17 (antibody, V domains shown)
VH: QVQLVESGGGVVQPGRSLRLSCAASGFIFSNYGMHWVRQAPGRGLEWVAVIWSDGTTTYYADSFKGRFTISSDNSKNTVYLQMNSLRADDSAIYYCARGDLDVVQVAAVTKLWDYWGQGTLVTVSS
VL: QSVLTQPPSASGSLGRSVTISCTGTSSDVGGYNYVSWYQQHPGKVPKLLVYEVTKRPSGVPDRFSGSKSGNTASLTVSGLQAEDEADYYCSSYAVSNNFVFGTGTKLTVTV
In the case of B1, the absorbance at 450 nm (450) in test [1] was 3 OD450; in test [2], 3.12 OD450; in test [3], 2.96 OD450.
